Source: PMC3893532

B1: seipin: N88S (protein)
parent chain: MVNDPPVPALLWAQEVGQVLAGRARRLLLQFGVLFCTILLLLWVSVFLYGSFYYSYMPTVSHLSPVHFYYRTDCDSSTTSLCSFPVANVSLTKGGRDRVLMYGQPYRVTLELELPESPVNQDLGMFLVTISCYTRGGRIISTSSRSVMLHYRSDLLQMLDTLVFSSLLLFGFAEQKQLLEVELYADYRENSYVPTTGAIIEIHSKRIQLYGAYLRIHAHFTGLRYLLYNFPMTCAFIGVASNFTFLSVIVLFSYMQWVWGGIWPRHRFSLQVNIRKRDNSRKEVQRRISAHQPGPEGQEESTPQSDVTEDGESPEDPSGTEGQLSEEEKPDQQPLSGEEELEPEASDGSGSWEDAALLTEANLPAPAPASASAPVLETLGSSEPAGGALRQRPTCSSS
B2: seipin: S90L (protein)
parent chain: MVNDPPVPALLWAQEVGQVLAGRARRLLLQFGVLFCTILLLLWVSVFLYGSFYYSYMPTVSHLSPVHFYYRTDCDSSTTSLCSFPVANVSLTKGGRDRVLMYGQPYRVTLELELPESPVNQDLGMFLVTISCYTRGGRIISTSSRSVMLHYRSDLLQMLDTLVFSSLLLFGFAEQKQLLEVELYADYRENSYVPTTGAIIEIHSKRIQLYGAYLRIHAHFTGLRYLLYNFPMTCAFIGVASNFTFLSVIVLFSYMQWVWGGIWPRHRFSLQVNIRKRDNSRKEVQRRISAHQPGPEGQEESTPQSDVTEDGESPEDPSGTEGQLSEEEKPDQQPLSGEEELEPEASDGSGSWEDAALLTEANLPAPAPASASAPVLETLGSSEPAGGALRQRPTCSSS

Assay: confocal immunofluorescence, transfected hippocampal neurons
Conditions: glycan lost; control: wild-type seipin

Protein	localisation_or_trafficking
B1	changes
B2	changes
